Measurements from article PMC8913847.

Target: T1, IRF-3, endogenous in SeV-infected 293T cells (phosphorylated) (human (endogenous in 293T)), Q14653
T1 chain: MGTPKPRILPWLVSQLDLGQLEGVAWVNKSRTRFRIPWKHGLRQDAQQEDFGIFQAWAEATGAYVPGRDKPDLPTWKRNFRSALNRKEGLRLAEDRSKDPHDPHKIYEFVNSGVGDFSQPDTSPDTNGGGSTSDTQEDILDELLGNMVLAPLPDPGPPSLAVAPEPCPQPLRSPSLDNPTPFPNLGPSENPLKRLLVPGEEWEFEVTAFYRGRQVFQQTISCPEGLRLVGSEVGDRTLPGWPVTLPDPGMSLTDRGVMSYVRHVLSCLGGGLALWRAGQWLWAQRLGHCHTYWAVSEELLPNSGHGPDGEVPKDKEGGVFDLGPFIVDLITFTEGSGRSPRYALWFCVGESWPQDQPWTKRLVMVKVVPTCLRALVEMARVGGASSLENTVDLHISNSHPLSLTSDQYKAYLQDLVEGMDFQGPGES
Test: native gel or EMSA; native PAGE (7.5% gel, 0.2% sodium deoxycholate in the upper chamber buffer) of total lysates of 293T and 293T DDX3KO cells infected with SeV for the indicated times; immunoblot for IRF-3
Settings: remark: other sources report otherwise

stoichiometry N: 2
B1: IRF-3, endogenous in SeV-infected 293T cells (phosphorylated), Q14653 1-427 (natural protein)
chain: T1 chain
modifications: here or on the partner: phosphorylation detected with phospho-specific antibody (S396); mobility retardation suggesting phosphorylation at multiple sites; phosphorylation detected with phospho-specific antibody (S396); mobility retardation suggesting phosphorylation at multiple sites
